Values of other authors as cited in PMC12748512.
Read-outs that look alike come from different tables or passages of the source.

Tests used:
[1] = target: IL-2Rβ-γc complex (Homo sapiens) (UniProt P14784)
[2] = target: IL-2Rβ-γc complex (Homo sapiens) (UniProt P14784); remark: listed apart in the source

UniProt P14784, sequence (P14784 27-240, chain 1 of 2): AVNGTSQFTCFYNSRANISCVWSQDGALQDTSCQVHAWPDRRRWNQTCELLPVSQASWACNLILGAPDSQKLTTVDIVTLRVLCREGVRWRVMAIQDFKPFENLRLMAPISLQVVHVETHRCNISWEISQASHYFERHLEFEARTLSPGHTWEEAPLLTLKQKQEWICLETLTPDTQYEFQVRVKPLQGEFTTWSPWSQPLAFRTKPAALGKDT
UniProt P14784, sequence (P31785 23-262, chain 2 of 2, further chain): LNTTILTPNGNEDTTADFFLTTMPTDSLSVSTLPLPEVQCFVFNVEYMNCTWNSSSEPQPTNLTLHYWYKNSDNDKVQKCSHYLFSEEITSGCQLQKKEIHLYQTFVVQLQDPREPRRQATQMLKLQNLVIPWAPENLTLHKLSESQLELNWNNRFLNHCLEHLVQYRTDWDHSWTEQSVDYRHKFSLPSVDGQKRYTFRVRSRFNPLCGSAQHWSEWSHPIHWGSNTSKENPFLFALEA

IL-2 (from UniProt P60568)
Kd [1]: 1 nM

IL-15 (from UniProt P40933)
Kd [2]: 1 nM
